The target of test [1] is T1, Biotinylated Human BCMA/TNFRSF17 Protein, Fc Tag, Avi Tag (BCMA-hFc-Bio) (human, UniProt Q02223 1-54, biotinylated (Avitag)).
T1 construct: Bought protein; also called control antigen BCMA; unrelated antigen BCMA; not shown: Fc tag (hFc) and Avi tag
T1 sequence (looked up): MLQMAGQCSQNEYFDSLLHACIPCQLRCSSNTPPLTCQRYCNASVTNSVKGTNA
Put plainly: phage ELISA, biotinylated antigen on streptavidin plate. On the procedure: (§1) In ELISA preliminary screening, the streptavidin-biotin binding allowed the biotinylated target protein (CD19-hFc-Bio) and the control protein (BCMA-hFc-Bio) to be closer to native antigen conformation in the reaction solution. Clones that only bound to CD19-hFc-Bio but not to BCMA-hFc-Bio and streptavidin were considered specific. The FACS preliminary screening was performed using a cell line Raji with high expression of CD19 and Raji-CD19ko with knockout of CD19 molecules, and clones that only bind to Raji cells but not to Raji-CD19ko cells were considered specific. Through the two preliminary screenings based on ELISA and FACS respectively, we could obtain candidate antibodies that can not only bind to the recombinantly expressed CD19 protein but also recognize the native CD19 molecules on the cell surface for further screening.
(§2) Monoclonal antibodies were randomly selected from the enriched phage antibody pool, packaged into phages, and the binding of the monoclonal phage to CD19-hFc-Bio protein and BCMA-hFc-Bio protein was detected by phage ELISA to find CD19-specific phage antibody clones. Control 1 is FMC-63 ([…] anti-human CD19 phage antibody clone); and control 2 is non-CD19-bound scFv phage antibody clone. […]

A further test deals with T2, Streptavidin (UniProt P22629 37-163, limits assumed).
T2 construct: Plate coating in the phage ELISA, tested as a control antigen; also called Strepavidin
In words: phage ELISA, streptavidin-coated plate. How it is done:
as §1, §2

T2 sequence (P22629 37-163 limits assumed): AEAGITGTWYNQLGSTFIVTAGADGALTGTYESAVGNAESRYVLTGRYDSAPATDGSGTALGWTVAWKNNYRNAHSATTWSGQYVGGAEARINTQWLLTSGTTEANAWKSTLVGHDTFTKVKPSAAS

B1: #78 scFv phage antibody clone (scFv)
scFv: QAVLTQPPSVSEAPRQRVTISCSGSSSNIGNNAVSWYQQLPGKAPKLLIYYDDLLPSGVSDRFSGSKSGTSASLAISGLQSEDEADYYCAAWDDSLNGWVFGGGTKVTVLGSRGGGGSGGGGSGGGGSLEEVQLVQSGAEVKKPGESLKISCKGSGYSFTSYWIGWVRQMPGKGLEWMGIIYPGDSDTRYSPSFQGQVTISADKSISTAYLQWSSLKASDTAMYYCARLSYSWSSWYWDFWGQGTLVTVSS
notes: The phage coat fusion is not described; also called clone #78; phage #78
Take B1: the binding result (in test [1]; in the test with Streptavidin) was “no binding” in each case.

B2: #62 scFv phage antibody clone (scFv)
scFv: QSVVTQPPSVSGAPGQRVTISCTGSSSNIGAGYDVHWYQQLPGTAPKLLIYENTNRPSGVPDRFSGSKSGTSASLAITGLQAEDEADYYCQSYDSSLSGWRVFGGGTKLTVLGSRGGGGSGGGGSGGGGSLEMAEVQLVQSGAEVKKPGESLKISCKGSGYSFTNSWIGWVRQMPGKGLEWMGLIYPDDSDTRYSPSFQGQVTISADSAINTAYLQWSSLKASDTAMYYCARQSTYIYGGYYDTWGQGTLVTVSS
notes: The phage coat fusion is not described; also called clone #62; phage #62
B2: the binding result (in test [1]; in the test with Streptavidin) was “no binding” each time.

Source of the values: patent US20220220200A1 (NANJING IASO BIOTECHNOLOGY, published 2022).
